For one sequence, binding results are on record in publication PMC7797058, “Characterization of the first tetrameric transcription factor of the GntR superfamily with allosteric regulation from the bacterial pathogen Agrobacterium fabrum” (Nucleic Acids Research, 2020).

For this data set, the target named is T1, Atu1419-H3A H141A;H192A;H214A (Agrobacterium fabrum C58) (UniProt A9CJ36).
T1 sequence: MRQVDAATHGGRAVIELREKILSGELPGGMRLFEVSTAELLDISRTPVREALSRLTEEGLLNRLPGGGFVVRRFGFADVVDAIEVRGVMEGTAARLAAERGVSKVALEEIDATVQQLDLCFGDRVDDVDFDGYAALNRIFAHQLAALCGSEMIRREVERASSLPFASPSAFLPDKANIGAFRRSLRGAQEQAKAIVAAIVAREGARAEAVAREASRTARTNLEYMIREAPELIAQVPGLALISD
Put plainly: EMSA. As to conditions: EMSA: 50 mM Tris-HCl pH 8, 150 mM NaCl, 30 nM DNA, 30 min at room temperature; gel 6% or 12% PAGE in TBE at 4 C. In general terms: In EMSA bound probe runs differently from free probe, usually more slowly.

As to “AAGCGCCTGAACTGATTGCGCAGGTTCCGGGTCTCGCACTCATCAGCGACTAAGCGGCGGAAATCGCTGCAAATCCAGGGGTGGCGCCTTTTGGCGCCGCCTTTATTTTTGTCGACACCCTCCCTGACGCGGTAATTTTGCGCTTGCAATTTATCAAAGCACAGCGTTTCATGTATACATAGATGCGATTGCCAGGGAGGAGATGACAATGGCAAATTCCAGTCTGACCGAGGTTTTGAAGCAATATCCGAACCCCGTTGAAATGCTC (double strand) [Patu1420]”, the binding result is given as “binds”.
